This is an account of results in US20200024322A1 (Eli Lilly, published 2020).

Positions count from the first letter of the chain named. Numbered stars: 1 amine (or outer) side, 2 acyl side, 3 side chain; on linkers, the order of the positions; unused ones are H or OH. Square brackets hold non-standard residues; d marks the D form. Side chains are listed from the residue outwards. Ends that are not written are not given here. * marks the point of attachment. C18 diacid = O=C(O)CCCCCCCCCCCCCCCCC(=O)*; γGlu = O=C(O)[C@H](CCC(=O)[*:2])N[*:1]; AEEA = NCCOCCOCC(=O)O; Aib = CC(C)(N)C(=O)O

The labels stand for the following.
B1: Example 304 (peptide)
peptide: YXEGTFTSDYSIXLDKKAQXEFIEYLIEGGPSSG
modifications: Aib2; αMeL13; K17((2-[2-(2-Amino-ethoxy)-ethoxy]-acetyl)2-(γ-Glu)-CO-(CH2)16-CO2H); Aib20; C-terminal NH2
B2: Example 306 (peptide)
peptide: B1 peptide with E28A
modifications: Aib2; αMeL13; K17((2-[2-(2-Amino-ethoxy)-ethoxy]-acetyl)2-(γ-Glu)-CO-(CH2)16-CO2H); Aib20; C-terminal NH2
B3: Example 352 (peptide)
peptide: XXEGTFTSDYSIXLDKKAQXAFIXYLIAGGPSSGAPPPS
modifications: D-Tyr1; Aib2; αMeL13; K17((2-[2-(2-Amino-ethoxy)-ethoxy]-acetyl)2-(γ-Glu)-CO-(CH2)18-CO2H); Aib20; D-Glu24; C-terminal NH2
B4: Example 356 (peptide)
peptide: B3 peptide with A28E
modifications: D-Tyr1; Aib2; αMeL13; K17((2-[2-(2-Amino-ethoxy)-ethoxy]-acetyl)2-(γ-Glu)-CO-(CH2)18-CO2H); Aib20; D-Glu24; C-terminal NH2
B5: Example 291 (peptide)
peptide: B3 peptide with K16X
modifications: D-Tyr1; Aib2; αMeL13; Orn16; K17((2-[2-(2-Amino-ethoxy)-ethoxy]-acetyl)2-(γ-Glu)-CO-(CH2)18-CO2H); Aib20; D-Glu24; C-terminal NH2
B6: Example 359 (peptide)
peptide: B3 peptide with K16X, A21E, I23V, X24E
modifications: D-Tyr1; Aib2; αMeL13; Orn16; K17((2-[2-(2-Amino-ethoxy)-ethoxy]-acetyl)2-(γ-Glu)-CO-(CH2)18-CO2H); Aib20; C-terminal NH2
B7: Example 354 (peptide)
peptide: B3 peptide with K16X, A21E
modifications: D-Tyr1; Aib2; αMeL13; Orn16; K17((2-[2-(2-Amino-ethoxy)-ethoxy]-acetyl)2-(γ-Glu)-CO-(CH2)18-CO2H); Aib20; D-Glu24; C-terminal NH2
B8: Example 357 (peptide)
peptide: B3 peptide with K16X, A28E
modifications: D-Tyr1; Aib2; αMeL13; Orn16; K17((2-[2-(2-Amino-ethoxy)-ethoxy]-acetyl)2-(γ-Glu)-CO-(CH2)18-CO2H); Aib20; D-Glu24; C-terminal NH2
B9: Example 362 (peptide)
peptide: B3 peptide with K16X, I23V
modifications: D-Tyr1; Aib2; αMeL13; Orn16; K17((2-[2-(2-Amino-ethoxy)-ethoxy]-acetyl)2-(γ-Glu)-CO-(CH2)18-CO2H); Aib20; D-Glu24; C-terminal NH2
B10: Example 364 (peptide)
peptide: B3 peptide with K16X, I23V
modifications: not fully specified; D-Tyr1; Aib2; αMeL13; Orn16; K17((2-[2-(2-Amino-ethoxy)-ethoxy]-acetyl)2-(γ-Glu)-CO-(CH2)16-CO2H); Aib20; D-Glu24; C-terminal NH2
B11: Example 349 (peptide)
peptide: B3 peptide with K16X, A21E, X24E
modifications: D-Tyr1; Aib2; αMeL13; Orn16; K17((2-[2-(2-Amino-ethoxy)-ethoxy]-acetyl)2-(γ-Glu)-CO-(CH2)18-CO2H); Aib20; C-terminal NH2
B12: Example 296 (peptide)
peptide: Y[Aib]EGTFTSDYSILLDKK([AEEA-AEEA-γGlu-C18 diacid])AQKAFIEYLIEGGPSSG-NH2
modifications: N-terminus assumed
SMILES: CC[C@H](C)[C@H](NC(=O)[C@H](CC(C)C)NC(=O)[C@H](Cc1ccc(O)cc1)NC(=O)[C@H](CCC(=O)O)NC(=O)[C@@H](NC(=O)[C@H](Cc1ccccc1)NC(=O)[C@H](C)NC(=O)[C@H](CCCCN)NC(=O)[C@H](CCC(N)=O)NC(=O)[C@H](C)NC(=O)[C@H](CCCCNC(=O)COCCOCCNC(=O)COCCOCCNC(=O)CC[C@H](NC(=O)CCCCCCCCCCCCCCCCC(=O)O)C(=O)O)NC(=O)[C@H](CCCCN)NC(=O)[C@H](CC(=O)O)NC(=O)[C@H](CC(C)C)NC(=O)[C@H](CC(C)C)NC(=O)[C@@H](NC(=O)[C@H](CO)NC(=O)[C@H](Cc1ccc(O)cc1)NC(=O)[C@H](CC(=O)O)NC(=O)[C@H](CO)NC(=O)[C@@H](NC(=O)[C@H](Cc1ccccc1)NC(=O)[C@@H](NC(=O)CNC(=O)[C@H](CCC(=O)O)NC(=O)C(C)(C)NC(=O)[C@@H](N)Cc1ccc(O)cc1)[C@@H](C)O)[C@@H](C)O)[C@@H](C)CC)[C@@H](C)CC)C(=O)N[C@@H](CCC(=O)O)C(=O)NCC(=O)NCC(=O)N1CCC[C@H]1C(=O)N[C@@H](CO)C(=O)N[C@@H](CO)C(=O)NCC(N)=O
B13: Example 213 (peptide)
peptide: YXEGTXTSDYSIXLDEKAQXEFIXYLIEGGPSSGAPPPS
modifications: Aib2; αMeF6; αMeL13; K17((2-[2-(2-Amino-ethoxy)-ethoxy]-acetyl)2-(γ-Glu)-CO-(CH2)16-CO2H); Aib20; D-Glu24; C-terminal NH2
B14: Example 218 (peptide)
peptide: B13 peptide with E16X
modifications: Aib2; αMeF(2F)6; αMeL13; Dap16; K17((2-[2-(2-Amino-ethoxy)-ethoxy]-acetyl)2-(γ-Glu)-CO-(CH2)18-CO2H); Aib20; D-Glu24; C-terminal NH2
B15: Example 217 (peptide)
peptide: B13 peptide with E16X
modifications: Aib2; αMeF(2F)6; αMeL13; Dab16; K17((2-[2-(2-Amino-ethoxy)-ethoxy]-acetyl)2-(γ-Glu)-CO-(CH2)18-CO2H); Aib20; D-Glu24; C-terminal NH2

T3 sequence (P47871 26-477): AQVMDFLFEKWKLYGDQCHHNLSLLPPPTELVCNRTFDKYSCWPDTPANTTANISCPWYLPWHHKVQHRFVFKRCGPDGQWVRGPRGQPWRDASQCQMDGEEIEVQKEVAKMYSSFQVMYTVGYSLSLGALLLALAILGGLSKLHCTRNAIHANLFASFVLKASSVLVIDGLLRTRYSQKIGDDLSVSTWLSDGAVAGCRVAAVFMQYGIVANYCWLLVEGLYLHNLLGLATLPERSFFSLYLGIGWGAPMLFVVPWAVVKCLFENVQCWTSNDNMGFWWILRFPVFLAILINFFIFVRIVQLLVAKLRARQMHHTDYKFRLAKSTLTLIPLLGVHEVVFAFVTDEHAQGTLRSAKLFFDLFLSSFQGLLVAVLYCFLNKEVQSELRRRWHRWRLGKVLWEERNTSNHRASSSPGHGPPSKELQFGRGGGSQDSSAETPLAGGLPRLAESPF

One assay concerns the target T1, human GLP-1 receptor (human, UniProt P43220 24-463).
T1 construct: whole, on cells; also called hGLP-1R; hGLP1R
Nature of the assay: [125I]-GLP-1 competition SPA, hGLP-1R membranes. Put shortly: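 Kᵢ values are geometric means (SEM) over replicates run on separate days, derived from IC₅₀ of four-parameter curve fits. Buffer: HEPES 25 mM pH 7.4 with CaCl₂ 2.5 mM, MgCl₂ 1 mM, bacitracin 0.1%, TWEEN-20 0.003%, EDTA-free protease inhibitors.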
Take B1: the Ki (as a rule, the equilibrium dissociation constant of an inhibitor or competing ligand from its target) was determined as 4.44 nM. This lies in the single-digit nanomolar range.

On to B2, for which the Ki was found to be 2.86 nM.

Take B3: the Ki is 3.03 nM.

Take B4: the affinity corresponds to a Ki of 10.3 nM.

Molecule B5 registered a Ki of 3.16 nM.

For B6, the affinity corresponds to a Ki of 2.59 nM.

The molecule B7 registered a Ki of 7.85 nM.

The molecule B8 showed a Ki of 7.02 nM.

Molecule B9 returned a Ki of 6.95 nM. The Ki values of the last two molecules are within 1.5-fold of each other.

B10: the Ki worked out at 17.2 nM.

In turn, B11 showed a Ki of 1.72 nM.

As for B12, the Ki worked out at 3.33 nM.

The molecule B13 came in with a Ki of 2.75 nM. The Ki values of the last two molecules are within 1.5-fold of each other.

B14 registered a Ki of 2.54 nM.

On to B15, for which the Ki worked out at 2.02 nM.

Another assay concerns the target T2, human GIP receptor (human, UniProt P48546 22-466).
T2 construct: whole, on cells; also called hGIPR; hGIP-R
T2 sequence (looked up): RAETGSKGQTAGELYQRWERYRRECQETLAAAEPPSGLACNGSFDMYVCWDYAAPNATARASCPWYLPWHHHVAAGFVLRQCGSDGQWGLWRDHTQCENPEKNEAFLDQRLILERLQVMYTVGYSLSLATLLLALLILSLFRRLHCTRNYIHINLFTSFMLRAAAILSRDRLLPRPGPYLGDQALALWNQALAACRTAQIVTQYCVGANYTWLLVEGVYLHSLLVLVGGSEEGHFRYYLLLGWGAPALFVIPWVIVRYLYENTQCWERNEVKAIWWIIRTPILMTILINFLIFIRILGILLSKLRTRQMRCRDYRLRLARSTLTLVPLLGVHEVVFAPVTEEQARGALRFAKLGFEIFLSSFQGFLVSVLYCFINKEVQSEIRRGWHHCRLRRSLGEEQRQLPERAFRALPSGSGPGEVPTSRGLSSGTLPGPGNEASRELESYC
Description: [125I]-GIP competition SPA, hGIPR membranes.
B1 returned a Ki of 0.0499 nM.

Regarding B2, the Ki came out at 0.0349 nM.

In turn, B3 returned a Ki of 0.0726 nM.

Turning to B4, the affinity, expressed as Ki, was 0.35 nM.

For the molecule B5, the affinity corresponds to a Ki of 0.129 nM.

For B6, the Ki stood at 0.0874 nM.

For the molecule B7, the Ki amounted to 0.175 nM.

As to B8, the Ki worked out at 0.316 nM.

The molecule B9 showed a Ki of 0.337 nM. The Ki values of the last two molecules are within 1.5-fold of each other.

In the case of B10, affinity was put at a Ki of 0.672 nM.

For B11, the Ki came to 0.08 nM. Compared with the last molecule, the Ki is about 8.4-fold lower.

As for B12, the Ki worked out at 0.444 nM.

As to B13, the affinity, expressed as Ki, was 0.365 nM.

Turning to B14, the affinity corresponds to a Ki of 0.0593 nM.

B15 returned a Ki of 0.0376 nM.

A further assay concerns the target T3, human glucagon receptor (human, UniProt P47871 26-477).
T3 construct: whole, on cells; also called hGcgR; GcgR
Nature of the assay: [125I]-Gcg competition SPA, hGcgR membranes.
In turn, B13 came in with a Ki of 544 nM.

Take B14: the Ki was determined as 270 nM.

The molecule B15 displayed a Ki of 516 nM.
